{"source": "the RNAGym collection of RNA variant scans (doi:10.7554/elife.80360)", "parents": {"B1": {"name": "CPEB3 Ribozyme (parent)", "chain": "GGGGGCCACAGCAGAAGCGUUCACGUCGCGGCCCCUGUCAGAUUCUGGUGAAUCUGCGAAUUCUGCUGU"}}, "data": [{"variants_of": "B1", "experiment": "self-cleavage, relative activity (ratio to wild type); higher = more cleavage; co-transcriptional", "values": [{"variant": "GGGGGCCACAGCAGAAGCGUUCUCGUCGCGGCCCCUGUCAGAUUCUGGUGAAUCUGCCAAUUCUGCUGU", "self-cleavage": 1.02}, {"variant": "GGGGGCCACAGCAGAAGCGUUCUCGUCGCGGCCCCUGUCAGAUUCUGGUGAAUCUGCUAAUUCUGCUGU", "self-cleavage": 1.01}, {"variant": "GGGGGCCACAGCAGAAGCGUUCUCGUCGCGGCCCCUGUCAGAUUCUGGUGAAUCUGCGAAUUCUUCUGU", "self-cleavage": 0.811}, {"variant": "GGGGGCCACAGCAGAAGCGUUCUCGUCGCGGCCCCUGACAGAUUCUGGUGAAUCUGCGAAUUCUGCUGU", "self-cleavage": 0.95}, {"variant": "GGGGGCCACAGCAGAAGCGUUCUCGUCGCGGCCCCUGCCAGAUUCUGGUGAAUCUGCGAAUUCUGCUGU", "self-cleavage": 0.96}, {"variant": "GGGGGCCACAGCAGAAGCGUUCUCGUCGCGGCCCCUGGCAGAUUCUGGUGAAUCUGCGAAUUCUGCUGU", "self-cleavage": 0.206}, {"variant": "GGGGGCCACAGCAGAAGCGUUCUCGUCGCGGCCCCUGUCAGAGUCUGGUGAAUCUGCGAAUUCUGCUGU", "self-cleavage": 0.884}, {"variant": "GGGGGCCACAGCAGAAGCGUUCUCGUCGCGGCCCCUGUCAGAUUCUGGUGAAUCAGCGAAUUCUGCUGU", "self-cleavage": 0.877}, {"variant": "GGGGGCCACAGCAGAAGCGUUCUCGUCGCGGCCCCUGUCAGAUUCUGGUGAAUCGGCGAAUUCUGCUGU", "self-cleavage": 0.908}, {"variant": "GGGGGCCACAGCAGAAGCGUUCUCGUCGCGGCCCCUGUCAGAUUCUGGUGAAUCUGCGAACUCUGCUGU", "self-cleavage": 0.895}, {"variant": "GGGGGCCACAGCAGAAGCGUUCUCGUCGCGGCCCCUGUCAGAUUCUGGUGAAUCUGCGAAUCCUGCUGU", "self-cleavage": 0.885}, {"variant": "GGGGGCCACAGCAGAAGCGUUCUCGUCGCGGCCCCUGUCAGAUUCUGGUGAAUCUGCGAAUGCUGCUGU", "self-cleavage": 0.894}, {"variant": "GGGGGCCACAGCAGAAGCGUUCUCGUCGCGGCCCCUGUCAGAUUCUGGUGAAUCUGCGAAUUCCGCUGU", "self-cleavage": 0.905}, {"variant": "GGGGGCCACAGCAGAAGCGUUCUCGUCGCGGCCCCUGUCAGAUUCUGGUGAAUCUGCGAAUUCUGCUGG", "self-cleavage": 1.04}, {"variant": "GGGGGCCACAGCAGAAGCGUUCAAGUCGCGGCCCCUGUCUGAUUCUGGUGAAUCUGCGAAUUCUGCUGU", "self-cleavage": 0.383}, {"variant": "GGGGGCCACAGCAGAAGCGUUCAAGUCGCGGCCCCUGUCAGCUUCUGGUGAAUCUGCGAAUUCUGCUGU", "self-cleavage": 0.629}, {"variant": "GGGGGCCACAGCAGAAGCGUUCAAGUCGCGGCCCCUGUCAGUUUCUGGUGAAUCUGCGAAUUCUGCUGU", "self-cleavage": 0.66}, {"variant": "GGGGGCCACAGCAGAAGCGUUCAAGUCGCGGCCCCUGUCAGAUUCUGGUGUAUCUGCGAAUUCUGCUGU", "self-cleavage": 0.782}, {"variant": "GGGGGCCACAGCAGAAGCGUUCAAGUCGCGGCCCCUGUCAGAUUCUGGUGACUCUGCGAAUUCUGCUGU", "self-cleavage": 0.634}, {"variant": "GGGGGCCACAGCAGAAGCGUUCAAGUCGCGGCCCCUGUCAGAUUCUGGUGAUUCUGCGAAUUCUGCUGU", "self-cleavage": 0.632}, {"variant": "GGGGGCCACAGCAGAAGCGUUCAAGUCGCGGCCCCUGUCAGAUUCUGGUGAAUCUGCGCAUUCUGCUGU", "self-cleavage": 0.32}, {"variant": "GGGGGCCACAGCAGAAGCGUUCAAGUUGCGGCCCCUGUCAGAUUCUGGUGAAUCUGCGAAUUCUGCUGU", "self-cleavage": 0.168}, {"variant": "GGGGGCCACAGCAGAAGCGUUCAAGUCGCGGGCCCUGUCAGAUUCUGGUGAAUCUGCGAAUUCUGCUGU", "self-cleavage": 0.234}, {"variant": "GGGGGCCACAGCAGAAGCGUUCAAGUCGCGGCCUCUGUCAGAUUCUGGUGAAUCUGCGAAUUCUGCUGU", "self-cleavage": 0.803}, {"variant": "GGGGGCCACAGCAGAAGCGUUCAAGUCGCGGCCCAUGUCAGAUUCUGGUGAAUCUGCGAAUUCUGCUGU", "self-cleavage": 0.185}, {"variant": "GGGGGCCACAGCAGAAGCGUUCAAGUCGCGGCCCUUGUCAGAUUCUGGUGAAUCUGCGAAUUCUGCUGU", "self-cleavage": 0.476}, {"variant": "GGGGGCCACAGCAGAAGCGUUCAAGUCGCGGCCCCUGUCAGAUUCUGGUGAAUAUGCGAAUUCUGCUGU", "self-cleavage": 0.516}, {"variant": "GGGGGCCACAGCAGAAGCGUUCAAGUCGCGGCCCCUGUCAGAUUCUGGUGAAUGUGCGAAUUCUGCUGU", "self-cleavage": 0.549}, {"variant": "GGGGGCCACAGCAGAAGCGUUCAAGUCGCGGCCCCUGUCAGAUUCUGGUGAAUCUGAGAAUUCUGCUGU", "self-cleavage": 0.188}, {"variant": "GGGGGCCACAGCAGAAGCGUUCAAGUCGCGGCCCCUGUCAGAUUCUGGUGAAUCUGCGAAUUGUGCUGU", "self-cleavage": 0.392}, {"variant": "GGGGGCCACAGCAGAAGCGUUCAAGUCGCCGCCCCUGUCAGAUUCUGGUGAAUCUGCGAAUUCUGCUGU", "self-cleavage": 0.159}, {"variant": "GGGGGCCACAGCAGAAGCGUUCAAGUCGCGACCCCUGUCAGAUUCUGGUGAAUCUGCGAAUUCUGCUGU", "self-cleavage": 0.372}, {"variant": "GGGGGCCACAGCAGAAGCGUUCAAGUCGCGGCCCCUUUCAGAUUCUGGUGAAUCUGCGAAUUCUGCUGU", "self-cleavage": 0.231}, {"variant": "GGGGGCCACAGCAGAAGCGUUCAAGUCGCGGCCCCUGUCAGAUUCUCGUGAAUCUGCGAAUUCUGCUGU", "self-cleavage": 0.765}, {"variant": "GGGGGCCACAGCAGAAGCGUUCAAGUCGCGGCCCCUGUCAGAUUCUUGUGAAUCUGCGAAUUCUGCUGU", "self-cleavage": 0.754}, {"variant": "GGGGGCCACAGCAGAAGCGUUCAAGUCGCGGCCCCUGUCAGAUUCUGGUUAAUCUGCGAAUUCUGCUGU", "self-cleavage": 0.722}, {"variant": "GGGGGCCACAGCAGAAGCGUUCAAGUCGCGGCCCCUGUCAGAUUCUGGUGAAUCUGCCAAUUCUGCUGU", "self-cleavage": 0.509}, {"variant": "GGGGGCCACAGCAGAAGCGUUCAAGUCGCGGCCCCUGUCAGAUUCUGGUGAAUCUGCGAAUUCUACUGU", "self-cleavage": 0.441}, {"variant": "GGGGGCCACAGCAGAAGCGUUCAAGUCGCGGCCCCUGUCAGAUUCUGGUGAAUCUGCGAAUUCUCCUGU", "self-cleavage": 0.245}]}]}
